Results as given in IntAct's records for PubMed 20668449.

B1: Regulator of chromosome condensation (Homo sapiens), P18754 (parent)
chain: MSPKRIAKRRSPPADAIPKSKKVKVSHRSHSTEPGLVLTLGQGDVGQLGLGENVMERKKPALVSIPEDVVQAEAGGMHTVCLSKSGQVYSFGCNDEGALGRDTSVEGSEMVPGKVELQEKVVQVSAGDSHTAALTDDGRVFLWGSFRDNNGVIGLLEPMKKSMVPVQVQLDVPVVKVASGNDHLVMLTADGDLYTLGCGEQGQLGRVPELFANRGGRQGLERLLVPKCVMLKSRGSRGHVRFQDAFCGAYFTFAISHEGHVYGFGLSNYHQLGTPGTESCFIPQNLTSFKNSTKSWVGFSGGQHHTVCMDSEGKAYSLGRAEYGRLGLGEGAEEKSIPTLISRLPAVSSVACGASVGYAVTKDGRVFAWGMGTNYQLGTGQDEDAWSPVEMMGKQLENRVVLSVSSGGQHTVLLVKDKEQS
B2: N-terminal Xaa-Pro-Lys N-methyltransferase 1 (Homo sapiens), Q9BV86 (parent)
chain: MTSEVIEDEKQFYSKAKTYWKQIPPTVDGMLGGYGHISSIDINSSRKFLQRFLREGPNKTGTSCALDCGAGIGRITKRLLLPLFREVDMVDITEDFLVQAKTYLGEEGKRVRNYFCCGLQDFTPEPDSYDVIWIQWVIGHLTDQHLAEFLRRCKGSLRPNGIIVIKDNMAQEGVILDDVDSSVCRDLDVVRRIICSAGLSLLAEERQENLPDEIYHVYSFALR

Variants of: B1
Settings: with ntm1a_human NTMT1, Q9BV86

Row | effect of a mutation on the interaction | Variant
1 | disrupting interaction | MSPQRIAKRRSPPADAIPKSKKVKVSHRSHSTEPGLVLTLGQGDVGQLGLGENVMERKKPALVSIPEDVVQAEAGGMHTVCLSKSGQVYSFGCNDEGALGRDTSVEGSEMVPGKVELQEKVVQVSAGDSHTAALTDDGRVFLWGSFRDNNGVIGLLEPMKKSMVPVQVQLDVPVVKVASGNDHLVMLTADGDLYTLGCGEQGQLGRVPELFANRGGRQGLERLLVPKCVMLKSRGSRGHVRFQDAFCGAYFTFAISHEGHVYGFGLSNYHQLGTPGTESCFIPQNLTSFKNSTKSWVGFSGGQHHTVCMDSEGKAYSLGRAEYGRLGLGEGAEEKSIPTLISRLPAVSSVACGASVGYAVTKDGRVFAWGMGTNYQLGTGQDEDAWSPVEMMGKQLENRVVLSVSSGGQHTVLLVKDKEQS [K4Q]

Variants of: B1
Settings: with ntm1a_human NTMT1, Q9BV86
Remark: another data set of the same source

Row | effect of a mutation on the interaction | Variant
2 | decreasing interaction | MVPKRIAKRRSPPADAIPKSKKVKVSHRSHSTEPGLVLTLGQGDVGQLGLGENVMERKKPALVSIPEDVVQAEAGGMHTVCLSKSGQVYSFGCNDEGALGRDTSVEGSEMVPGKVELQEKVVQVSAGDSHTAALTDDGRVFLWGSFRDNNGVIGLLEPMKKSMVPVQVQLDVPVVKVASGNDHLVMLTADGDLYTLGCGEQGQLGRVPELFANRGGRQGLERLLVPKCVMLKSRGSRGHVRFQDAFCGAYFTFAISHEGHVYGFGLSNYHQLGTPGTESCFIPQNLTSFKNSTKSWVGFSGGQHHTVCMDSEGKAYSLGRAEYGRLGLGEGAEEKSIPTLISRLPAVSSVACGASVGYAVTKDGRVFAWGMGTNYQLGTGQDEDAWSPVEMMGKQLENRVVLSVSSGGQHTVLLVKDKEQS [S2V]
3 | disrupting interaction strength | MDPKRIAKRRSPPADAIPKSKKVKVSHRSHSTEPGLVLTLGQGDVGQLGLGENVMERKKPALVSIPEDVVQAEAGGMHTVCLSKSGQVYSFGCNDEGALGRDTSVEGSEMVPGKVELQEKVVQVSAGDSHTAALTDDGRVFLWGSFRDNNGVIGLLEPMKKSMVPVQVQLDVPVVKVASGNDHLVMLTADGDLYTLGCGEQGQLGRVPELFANRGGRQGLERLLVPKCVMLKSRGSRGHVRFQDAFCGAYFTFAISHEGHVYGFGLSNYHQLGTPGTESCFIPQNLTSFKNSTKSWVGFSGGQHHTVCMDSEGKAYSLGRAEYGRLGLGEGAEEKSIPTLISRLPAVSSVACGASVGYAVTKDGRVFAWGMGTNYQLGTGQDEDAWSPVEMMGKQLENRVVLSVSSGGQHTVLLVKDKEQS [S2D]

Variants of: B2
Settings: with rcc1_human RCC1, P18754

Row | effect of a mutation on the interaction | Variant
4 | disrupting interaction | MTSEVIEDEKQFYSKAKTYWKQIPPTVDGMLGGYGHISSIDINSSRKFLQRFLREGPNKTGTSCALDCGAGIGRITKRLLLPLFREVDMVDITEDFLVQAKTYLGEEGKRVRNYFCCGLQDFTPEPDSYDVIWIQWVIGHLTDQHLAEFLRRCKGSLRPNGIIVIKDNMAQEGVILDDVKSSVCRDLDVVRRIICSAGLSLLAEERQENLPDEIYHVYSFALR [D180K]
5 | disrupting interaction | MTSEVIEDEKQFYSKAKTYWKQIPPTVDGMLGGYGHISSIDINSSRKFLQRFLREGPNKTGTSCALDCGAGIGRITKRLLLPLFREVDMVDITEDFLVQAKTYLGEEGKRVRNYFCCGLQDFTPEPDSYDVIWIQWVIGHLTDQHLAEFLRRCKGSLRPNGIIVIKDKMAQEGVILDDVDSSVCRDLDVVRRIICSAGLSLLAEERQENLPDEIYHVYSFALR [N168K]
